From article PMC5473869

B1: HDAC7 (residues 449–952), wild type, hexahistidine-tagged, in E. coli expression lysate (domain or fragment)
chain: LLWEQQRLAGRLPRGSTGDTVLLPLAQGGHRPLSRAQSSPAAPASLSAPEPASQARVLSSSETPARTLPFTTGLIYDSVMLKHQCSCGDNSRHPEHAGRIQSIWSRLQERGLRSQCECLRGRKASLEELQSVHSERHVLLYGTNPLSRLKLDNGKLAGLLAQRMFVMLPCGGVGVDTDTIWNELHSSNAARWAAGSVTDLAFKVASRELKNGFAVVRPPGHHADHSTAMGFCFFNSVAIACRQLQQQSKASKILIVDWDVHHGNGTQQTFYQDPSVLYISLHRHDDGNFFPGSGAVDEVGAGSGEGFNVNVAWAGGLDPPMGDPEYLAAFRIVVMPIAREFSPDLVLVSAGFDAAEGHPAPLGGYHVSAKCFGYMTQQLMNLAGGAVVLALEGGHDLTAICDASEACVAALLGNRVDPLSEEGWKQKPNLNAIRSLEAVIRVHSKYWGCMQRLASCPDSWVPRVPGADKEEVEAVTALASLSVGILAEDRPSEQLVEEEEPMNL
B2: HDAC7 catalytic domain (residues 449–952), wild type, purified (domain or fragment)
chain: B1 chain
B3: HDAC7 catalytic domain (residues 449–952) (domain or fragment)
chain: B1 chain

What was measured:
[1] = molecular target: HDAC7 catalytic domain (residues 449–952) (human) (UniProt Q8WUI4); test: ITC; HDAC7 at 50 µM in the cell, 25 °C; 26 injections of 1.5 µl of SMRT(1255–1452) wild type or alanine mutant at 300 µM; 50 mM KH2PO4/K2HPO4 pH 6.5, 100 mM KCl, 1 mM DTT, 1 mM β-ME; Kd values approximate (noise, aggregation of HDAC7)
[2] = molecular target: HDAC7 catalytic domain (residues 449–952), wild type, purified (human) (UniProt Q8WUI4); test: ITC; ITC200, HDAC7 50 µM in the cell, SMRT(1255–1452) wild type or alanine mutants 300 µM injected; 50 mM KH2PO4/K2HPO4 pH 6.5, 100 mM KCl, 1 mM DTT, 1 mM β-ME; 25 °C; hampered by precipitation of HDAC7
[3] = molecular target: GST-SMRT (1358–1391) R1381A (human); test: pull-down; purified GST-peptide or GST control on glutathione sepharose beads, incubated 2 h at 4 °C with supernatant of an E. coli HDAC7 expression lysate; washes with PBS pH 7.3, 3 mM DTT, 0.05% Tween 20, 500 mM NaCl; anti-His western blot
SMRT(1255-1452) (human) [4] = molecular target: SMRT(1255-1452) (human) (UniProt Q9Y618); test: MST; Monolith NT.115, SMRT(1255–1452) labelled with NT647, HDAC7 or HDAC7 C535A/H541A 20 nM to 20 µM; 25 mM Tris pH 8.0, 10 mM MgCl2, 150 mM KCl, 0.5% Tween-20; room temperature
SMRT(1255-1452) (human) [5] = molecular target: SMRT(1255-1452) (human) (UniProt Q9Y618); test: SPR; Biacore 3000, SMRT(1255–1452) amine-coupled to a CM5 chip (5500 RU), HDAC7 injected at 500 nM to 8 µM; 50 mM KH2PO4/K2HPO4 pH 6.5, 100 mM KCl, 1 mM DTT; two-step (three-state) model, overall apparent Kd
SMRT(1255-1452) (human) [6] = molecular target: SMRT(1255-1452) (human) (UniProt Q9Y618); test: NMR titration; 15N-1H HSQC of labelled SMRT(1255–1452) titrated with unlabeled HDAC7 (1:0.72, 1:2.2, 1:3.8) or mixed with HDAC7 C535A/H541A (40 µM:144 µM, 1:3.6); peak intensities; 50 mM potassium phosphate, 100 mM KCl, 1 mM DTT, pH 6.5, 25 °C
SMRT(1255-1452) (human) [7] = molecular target: SMRT(1255-1452) (human) (UniProt Q9Y618); test: NMR titration; 15N-labelled SMRT(1255-1452) with 0.72, 2.2 and 3.8 molar equivalents of unlabelled wt-HDAC7; relative HSQC peak intensities fitted to a bimolecular binding equation; 25 °C, 50 mM potassium phosphate pH 6.5, 100 mM KCl, 1 mM DTT; rough estimates, HDAC7 precipitated

Kd [1]	other results	Molecule
34 µM		SMRT(1255-1452) E1376A (from UniProt Q9Y618 1255-1452) (domain or fragment)
43 µM		SMRT(1255-1452) K1384A (from UniProt Q9Y618 1255-1452) (domain or fragment)
7.5 µM		SMRT(1255-1452) L1379A (from UniProt Q9Y618 1255-1452) (domain or fragment)
28 µM		SMRT(1255-1452) L1386A (from UniProt Q9Y618 1255-1452) (domain or fragment)
19 µM		SMRT(1255-1452) R1360A (from UniProt Q9Y618 1255-1452) (domain or fragment)
55 µM		SMRT(1255-1452) R1381A (from UniProt Q9Y618 1255-1452) (domain or fragment)
37 µM		SMRT(1255-1452) V1372A (from UniProt Q9Y618 1255-1452) (domain or fragment)
	Kd [2]: 14.1 µM	SMRT(1255–1452) (from UniProt Q9Y618 1255-1452) (domain or fragment)
	fold reduction of affinity against wild-type SMRT(1255–1452) [2]: 4 fold	SMRT(1255–1452) R1381A (from UniProt Q9Y618 1255-1452) (domain or fragment)
	fold reduction of binding against wild-type GST-SMRT (1358–1391) [3]: 4 fold	B1
	Kd (SMRT(1255-1452) (human) [4]): 2.8 µM; Kd (SMRT(1255-1452) (human) [5]): 2.1 µM; Kd (SMRT(1255-1452) (human) [6]): < 40 µM	B2
	Kd (SMRT(1255-1452) (human) [7]): 19 µM	B3
